Reference: paper PMC9828297 (Acta Biochimica et Biophysica Sinica, 2022)

Biological target: the molecule itself
Assay: SEC

B1: polyketide cyclase from Mycobacterium tuberculosis (MtPC) (natural protein)
chain: MGSTPPRTPQEVFAHHGQALAAGDLDEIVADYADDSFVITPAGIARGKEGIRQLFVKLLDDIPNALWDLKTQIFEGDILFLEWTANSAVSRVDDGVDTFVFRDGTIWAHTVRYTPHPKT
  stoichiometry N: 2
